Reference: patent US20210063414A1, “METHODS FOR PREVENTING AND/OR TREATING BONE LOSS CONDITIONS BY MODULATING IRISIN” (Dana-Farber Cancer Institute, Inc., priority 2018, published 2021)

What was measured:
Assay in all cases: Crosslinking/co-immunoprecipitation/mass spectrometry (TMT quantitative proteomics) to identify irisin receptors
Format in all cases: binding
[1] = target: T1, MLO-Y4 cell surface proteins (Mus musculus, UniProt Q9Z138); settings: co-precipitated protein Ror2 (ROR2_MOUSE)
T1 construct: endogenous in cells; host or cells: MLO-Y4
T1 sequence (Q9Z138 34-944): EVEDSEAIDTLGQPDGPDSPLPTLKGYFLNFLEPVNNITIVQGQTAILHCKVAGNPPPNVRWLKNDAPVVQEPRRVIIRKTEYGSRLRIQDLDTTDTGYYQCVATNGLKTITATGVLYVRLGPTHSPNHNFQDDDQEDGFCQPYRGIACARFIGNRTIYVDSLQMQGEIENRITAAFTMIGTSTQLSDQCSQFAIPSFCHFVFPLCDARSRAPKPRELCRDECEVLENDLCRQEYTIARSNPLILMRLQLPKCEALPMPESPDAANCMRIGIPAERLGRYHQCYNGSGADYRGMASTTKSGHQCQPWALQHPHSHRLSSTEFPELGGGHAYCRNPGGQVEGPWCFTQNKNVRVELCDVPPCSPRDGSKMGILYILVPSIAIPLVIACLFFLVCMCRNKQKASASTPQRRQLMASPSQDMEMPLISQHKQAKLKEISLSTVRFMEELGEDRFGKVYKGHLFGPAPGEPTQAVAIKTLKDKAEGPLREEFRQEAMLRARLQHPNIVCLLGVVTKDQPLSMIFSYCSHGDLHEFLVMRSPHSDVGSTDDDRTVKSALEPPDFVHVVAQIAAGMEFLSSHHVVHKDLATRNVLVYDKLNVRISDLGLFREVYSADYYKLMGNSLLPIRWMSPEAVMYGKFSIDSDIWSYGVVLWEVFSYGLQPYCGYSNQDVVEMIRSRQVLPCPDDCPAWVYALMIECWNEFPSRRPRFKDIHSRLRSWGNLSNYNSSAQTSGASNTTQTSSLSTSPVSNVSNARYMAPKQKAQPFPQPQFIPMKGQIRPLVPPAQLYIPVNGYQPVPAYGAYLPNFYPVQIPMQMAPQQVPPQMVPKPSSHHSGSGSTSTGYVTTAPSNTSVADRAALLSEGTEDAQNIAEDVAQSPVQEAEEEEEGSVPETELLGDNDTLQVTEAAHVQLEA
Outline: (§1)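 Mouse MLO-Y4 cells were switched to serum-free FreeStyle medium for 4 h, chilled, then exposed to 10 nM His-tagged irisin (or adipsin as control) for 20 min. Cells were crosslinked with 1.5 mM DTSSP (30 min, ice), and bound proteins were pulled down on Ni-NTA and eluted with 250 mM imidazole. Eluates were separated by SDS-PAGE, trypsin-digested in gel, TMT 6-plex labelled and quantified by MS3-based LC-MS/MS on an Orbitrap Fusion Lumos.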

[2] = target: T2, MLO-Y4 cell surface proteins (Mus musculus, UniProt Q8BFT2); settings: co-precipitated protein Haus4 (HAUS4_MOUSE)
T2 construct: endogenous in cells; host or cells: MLO-Y4
T2 sequence (Q8BFT2 1-363): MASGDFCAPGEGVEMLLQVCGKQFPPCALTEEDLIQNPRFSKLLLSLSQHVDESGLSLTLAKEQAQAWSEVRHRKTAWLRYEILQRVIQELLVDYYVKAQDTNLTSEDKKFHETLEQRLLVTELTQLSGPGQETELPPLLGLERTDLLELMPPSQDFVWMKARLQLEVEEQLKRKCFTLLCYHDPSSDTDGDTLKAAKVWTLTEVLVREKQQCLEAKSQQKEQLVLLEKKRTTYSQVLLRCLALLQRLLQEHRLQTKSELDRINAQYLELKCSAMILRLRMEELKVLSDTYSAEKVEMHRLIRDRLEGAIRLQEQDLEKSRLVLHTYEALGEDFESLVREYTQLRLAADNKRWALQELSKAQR
Outline: as §1

[3] = target: T3, MLO-Y4 cell surface proteins (Mus musculus, UniProt P97360); settings: co-precipitated protein Etv6 (ETV6_MOUSE)
T3 construct: endogenous in cells; host or cells: MLO-Y4
T3 sequence (P97360 1-485): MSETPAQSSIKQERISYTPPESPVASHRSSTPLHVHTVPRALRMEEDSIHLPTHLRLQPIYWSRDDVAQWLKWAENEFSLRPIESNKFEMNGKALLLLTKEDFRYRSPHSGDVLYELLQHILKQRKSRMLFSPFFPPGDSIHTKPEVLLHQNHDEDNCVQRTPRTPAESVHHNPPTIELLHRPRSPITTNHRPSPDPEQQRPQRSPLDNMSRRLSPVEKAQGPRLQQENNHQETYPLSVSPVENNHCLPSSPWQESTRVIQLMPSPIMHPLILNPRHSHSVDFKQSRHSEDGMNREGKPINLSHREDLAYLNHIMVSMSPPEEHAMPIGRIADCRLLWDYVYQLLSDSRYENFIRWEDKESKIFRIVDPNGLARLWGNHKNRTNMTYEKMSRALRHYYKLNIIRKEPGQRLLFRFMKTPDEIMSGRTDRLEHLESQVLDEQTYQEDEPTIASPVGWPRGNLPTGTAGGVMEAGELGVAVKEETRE
Outline: as §1

TMT signal-to-noise ratio [1]: 67.6684 | TMT signal-to-noise ratio [2]: 518.102 | TMT signal-to-noise ratio [3]: 137.108
Substance: adipsin
